Test results published in article PMC8938308 (Human genetics, 2021).

Biological target: sodium/potassium-transporting ATPase ATP1A3, F309S mutant, V5-tagged (human, UniProt P13637-3 1-1026, F309S)
Assay: co-IP

reduction of the interaction against WT ATP1A3: ~50%
B1: TOMM22, GFP-tagged (natural protein, UniProt Q9NS69 1-142, looked up)
chain: MAAAVAAAGAGEPQSPDELLPKGDAEKPEEELEEDDDEELDETLSERLWGLTEMFPERVRSAAGATFDLSLFVAQKMYRFSRAALWIGTTSFMILVLPVVFETEKLQMEQQQQLQQRQILLGPNTGLSGGMPGALPSLPGKI
